Results published in US20180312587A1 (ADURO BIOTECH HOLDINGS EUROPE B V, published 2018).

Key:
human SIRPα variant 1 [1] = biological target: T1, human SIRPα variant 1 (human, UniProt P78324 31-504); assay: CELISA, CHO-K1 transfectants, point mutant study
T1 construct: full length ORF on transfected CHO-K1 or HEK293 cells; entry includes the signal peptide; also called hSIRPαV1; SIRPαV1
Experimental: To pinpoint the amino acids for interaction of hSIRPα.50A with the IgV domain, several point mutants of hSIRPαV1 were generated based on single amino acid differences between hSIRPαV1/V2 and hSIRPβ1. […] Amino acids in the hSIRPα IgV domain that are altered in hSIRPβ1 were mutated by using the QuikChange II Site-Directed Mutagenesis Kit (Stratagene) and the full length hSIRPαV1 sequence (SEQ ID NO: 33) as donor cDNA. Binding of hSIRPα.50A to hSIRPαV1 point mutants was tested using CELISA. To this end, CHO-K1 cells were transiently transfected, using Lipofectamine 2000, with cDNA encoding the full length open reading frame of hSIRPαV1 and mutants thereof, and hSIRPβ1 subcloned into the pCI-neo vector. Transfected cells were seeded in culture medium (DMEM-F12 (Gibco) supplemented with 5% New Born Calf Serum (BioWest) and Pen/Strep (Gibco)) in 96-well flat-bottom tissue culture plates and incubated at 37° C., 5% CO₂ and 95% humidity for 24 hours. Subsequently, culture medium was removed and cells were incubated for 1 hour at 37° C., 5% CO₂ and 95% humidity with purified hSIRPα antibodies (used at 10 μg/mL and dilutions thereof). Next, cells were washed with PBS-T and incubated for 1 hour at 37° C., 5% CO₂ and 95% humidity with goat-anti-mouse IgG-HRP (Southern Biotech). […] Reactions were stopped with 0.5 M H₂SO₄ and absorbances were read at 450 and 610 nm. […]

[2] = biological target: T2, hSIRPα expressed on primary human cells (human, UniProt P78324 31-504); assay: flow cytometry, blockade of DyLight488-hCD47/Fc binding to CD14+ enriched monocytes, donor 2
T2 construct: whole, on cells; also called hSIRPα on primary human CD14+ monocytes; on primary human granulocytes
T2 sequence (P78324 31-504): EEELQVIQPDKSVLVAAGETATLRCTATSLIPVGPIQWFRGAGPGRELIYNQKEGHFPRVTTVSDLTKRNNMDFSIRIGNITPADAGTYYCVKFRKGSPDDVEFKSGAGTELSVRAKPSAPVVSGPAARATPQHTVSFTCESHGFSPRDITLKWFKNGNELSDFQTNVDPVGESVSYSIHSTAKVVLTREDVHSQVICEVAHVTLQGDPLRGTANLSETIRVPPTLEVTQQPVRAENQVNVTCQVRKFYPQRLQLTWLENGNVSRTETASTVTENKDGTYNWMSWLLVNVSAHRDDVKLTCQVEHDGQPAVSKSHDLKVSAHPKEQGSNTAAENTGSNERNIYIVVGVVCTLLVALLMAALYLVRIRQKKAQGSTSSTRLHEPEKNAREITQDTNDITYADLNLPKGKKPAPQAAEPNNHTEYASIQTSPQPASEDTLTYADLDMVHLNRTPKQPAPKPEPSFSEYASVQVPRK
Experimental: (§1) To assess the blocking ability of hSIRPα.50A, CD14+ enriched monocytes cells were seeded in 96-well round bottomed tissue culture plates and incubated for 45 minutes with FcR Blocking Reagent (Miltenyi Biotec) and hSIRPα.50A antibody (200 μg/mL and dilutions thereof) in PBS/1% BSA at 4° C. […] After this labeling procedure, cells were washed two times, resuspended in PBS/1% BSA containing 0.1 μg/mL DAPI (BioLegend), and analysed by flow cytometry on the FACSVerse (BD Biosciences). Data were processed and analysed with FlowJo V10 software (FlowJo, LLC). […] IC50 values represent the concentration at which half of the inhibition is observed.

human SIRPα variant 2 = biological target: T3, human SIRPα variant 2 (human, UniProt P78324 31-504); assay: CELISA, CHO-K1 transfectants; average of two experiments
T3 construct: full length ORF on transfected CHO-K1 cells; also called hSIRPαV2; SIRPαV2
T3 sequence (P78324 other isoform, or with tags, fused parts or gaps mutant limits assumed): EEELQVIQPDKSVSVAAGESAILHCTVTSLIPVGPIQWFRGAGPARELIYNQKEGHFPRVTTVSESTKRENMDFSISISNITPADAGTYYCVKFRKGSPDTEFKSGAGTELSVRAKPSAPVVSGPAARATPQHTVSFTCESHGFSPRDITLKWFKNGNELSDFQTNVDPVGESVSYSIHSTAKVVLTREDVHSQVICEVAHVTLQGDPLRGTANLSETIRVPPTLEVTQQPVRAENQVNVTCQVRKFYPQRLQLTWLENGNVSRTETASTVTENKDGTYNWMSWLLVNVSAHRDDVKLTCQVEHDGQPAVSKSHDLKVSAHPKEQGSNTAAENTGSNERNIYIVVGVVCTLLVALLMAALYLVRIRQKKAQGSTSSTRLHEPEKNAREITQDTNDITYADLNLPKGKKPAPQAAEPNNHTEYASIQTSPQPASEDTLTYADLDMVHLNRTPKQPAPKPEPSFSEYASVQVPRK
Experimental: (§2) Binding of the humanized antibodies to hSIRPα was studied in CELISA format. Binding of the hSIRPα antibodies to human SIRPαV1, SIRPαV2, hSIRPβ1, and hSIRPγ was confirmed using CHO-K1 cells that had been transiently transfected with cDNA encoding the full length open reading frame of each of these respective targets subcloned into the pCI-neo vector. CHO-K1.hSIRPαV1, CHO-K1.hSIRPαV2, CHO-K1.hSIRPβ1, and CHO-K1.hSIRPγ cells were seeded in culture medium (DMEM-F12 (Gibco) supplemented with 5% New Born Calf Serum (BioWest) and Pen/Strep (Gibco)) in 96-well flat-bottom tissue culture plates and incubated at 37° C., 5% CO₂ and 95% humidity until cell layers were confluent. Subsequently, culture medium was removed and cells were incubated for 1 hour at 37° C., 5% CO₂ and 95% humidity with purified hSIRPα antibodies (10 μg/mL and dilutions thereof). Next, cells were washed with PBS-T and incubated for 1 hour at 37° C., 5% CO₂ and 95% humidity with goat-anti-human IgG-HRP conjugate (Jackson Immuno Research) or goat-anti-mouse IgG-HRP (Southern Biotech). Subsequently, cells were washed three times with PBS-T and anti-hSIRPα immunoreactivity was visualized with TMB Stabilized Chromogen (Invitrogen). Reactions were stopped with 0.5 M H₂SO₄ and absorbances were read at 450 and 610 nm. […] In Table 13 the EC50 values of the humanized hSIRPα antibodies are depicted.
(§3) Table 13: Binding of humanized and parental hSIRPα.50A antibodies to CHO-K1.hSIRPαV1, CHO-K1.hSIRPαV2, CHO-K1.hSIRPβ1, and CHO-K1.hSIRPγ cells.

human SIRPα variant 1 [3] = biological target: T1, human SIRPα variant 1; assay: as above
Experimental: as §2, §3

[4] = biological target: T2, hSIRPα expressed on primary human cells; assay: flow cytometry on CD14+ enriched monocytes, human donor 1; blocked ligand: DyLight 488-labeled recombinant hCD47/Fc
Experimental: as §1, with “hSIRPα.40A,” for “hSIRPα.50A,”, “hSIRPα.40A” for “hSIRPα.50A”, “(20” for “(200”

T1 sequence (P78324 31-504 limits assumed, change not shown): as the sequence (P78324 31-504) above

B1: hSIRPα.50A (antibody, V domains shown)
VH: QVQLQQSGPELVKPGASVRISCKASGFTFTNYYIHWVKQRPGQGLEWIGWIYPGNVNTKYNEKFKAKATLTADKSSTTAYMQLSSLASEDSAVYFCARPTIIATDFDVWGAGTTVTVSS
VL: DIVMTQSHKFMSTSVGDRVNITCKASQGVGTAVGWYQQKPGQSPRLLIYWASTRHTGVPDRFTGSGSGTDFSLAISNVQSEDLADYFCQQYSTYPFTFGGGTNLEIK
notes: light chain constant domain not tied; also called mouse hSIRPα.50A; hSIRPα.50A.mIgG1
In the case of B1, the EC50 (human SIRPα variant 1 [1]) is reported as 0.535 nM, the IC50 [2] is reported as 1.03 nM and the EC50 (human SIRPα variant 2) is reported as 1.3 nM. For the same binder, the EC50 (human SIRPα variant 1 [3]) was 1.36 nM.

B2: hSIRPα.40A (antibody, mouse IgG1, kappa, V domains shown)
VH: EVQFQQSGTVLARPGTSVKMSCKASGSTFTSYWMHWVKQGPGQGLQWIGAIYPVNNDTTYNQKFKGKAELTVVTSTSTAYMEVSSLTNEDSAVYYCTRSFYYSLDAAWFVYWGQGTLVTVSA
VL: DIQMTQSPSSLSASLGERVSLTCRASQDIGSRLNWLQQEPDGTIKRLIYATSSLDSGVPKRFSGSRSGSDYSLTISGLESEDFVDYYCLQYASSPFTFGGGTKLEINR
notes: mouse antibody, full chains without signal peptide; also called mouse hSIRPα.40A
In the case of B2, the “IC50 (read off the curve)” value [4] is reported as roughly 0.4 nM.
